Measured values as given in article PMC4836915 (Journal of cystic fibrosis : official journal of the …, 2015).

Target: T1, recombinant Porin D (P. aeruginosa PAO1, UniProt P32722 24-443)
T1 sequence: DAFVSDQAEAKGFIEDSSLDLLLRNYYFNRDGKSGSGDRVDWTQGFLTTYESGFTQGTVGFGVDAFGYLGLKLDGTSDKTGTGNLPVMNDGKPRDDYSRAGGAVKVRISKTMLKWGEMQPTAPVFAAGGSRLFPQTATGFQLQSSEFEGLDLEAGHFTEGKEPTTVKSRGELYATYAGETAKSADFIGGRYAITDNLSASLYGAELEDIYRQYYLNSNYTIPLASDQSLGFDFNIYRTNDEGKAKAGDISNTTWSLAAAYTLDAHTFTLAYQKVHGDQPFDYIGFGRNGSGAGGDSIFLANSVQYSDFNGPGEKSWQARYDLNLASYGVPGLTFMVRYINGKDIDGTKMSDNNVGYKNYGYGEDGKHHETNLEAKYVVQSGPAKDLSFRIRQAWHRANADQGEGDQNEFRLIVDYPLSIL
Test: BLI

B1: recombinant vitronectin aa 80-396 (domain or fragment, human, UniProt P04004 80-396, looked up)
chain: DGEEKNNATVHEQVGGPSLTSDLQAQSKGNPEQTPVLKPEEEAPAPEVGASKPEGIDSRPETLHPGRPQPPAEEELCSGKPFDAFTDLKNGSLFAFRGQYCYELDEKAVRPGYPKLIRDVWGIEGPIDAAFTRINCQGKTYLFKGSQYWRFEDGVLDPDYPRNISDGFDGIPDNVDAALALPAHSYSGRERVYFFKGKQYWEYQFQHQPSQEECEGSSLSAVFEHFAMMQRDSWEDIFELLFWGRTSAGTRQPQFISRDWHGVPGQVDAAMAGRIYISGMAPRPSLAKKQRFRHRNRKGYRSQRGHSRGRNQNSRRP
Kd: 3.6 nM
